Patent publication US20200197440A1 (LENTIGEN TECHNOLOGY, published 2020)

Legend:
[1] = target: CD38 on CD38-positive tumor lines RPMI-8226 and MM1.S (UniProt P28907 1-300, limits assumed); assay: cell-based or functional assay
[2] = target: T1, CD38-His peptide (Thermo Fisher Scientific) (UniProt P28907 43-300, limits assumed); assay: flow cytometry of LV-transduced primary T cells stained with CD38-His, then anti-His PE
T1 construct: Bought staining reagent, detected with anti-His-PE; also called CD38-His reagent; CD38-His tagged peptide; not shown: His tag

surface expression level, % CAR T+ (CD38-His staining) [2] [%]	Binder	tumor killing of RPMI-8226 at E:T ratio of 1:5 (so in the source) [1] [% tumor killing]
> 75	CAR construct LTG2098 (hScFv aCD38 CD8 TM 4-1BB CD3 zeta) (other, Chimeric antigen receptor on transduced human primary T cells) QVQLQQSGPGLVKPSQTLSLTCVISGDSVSSNSAAWNWIRQSPSRGLEWLGRTYYRSKWHNDYAVSVESRIIVNPDTSKNQFSLQLNSVTPEDTAVYYCARDPGYFYGLDVWGQGTMVTVSSGGGGSGGGGSGGGGSNFMLTQPHSVSESPGKTVTIPCTRSSGTIADYYVQWYQQRPDSSPIIVIYDDNQRPSGVPDRFSGSIDSSSNSASLTISGLKTEDEAAYYCQSYDSTNHWVFGGGTKLTVLGAAATTTPAPRPPTPAPTIASQPLSLRPEACRPAAGGAVHTRGLDFACDIYIWAPLAGTCGVLLLSLVITLYCKRGRKKLLYIFKQPFMRPVQTTQEEDGCSCRFPEEEEGGCELRVKFSRSADAPAYQQGQNQLYNELNLGRREEYDVLDKRRGRDPEMGGKPRRKNPQEGLYNELQKDKMAEAYSEIGMKGERRRGKGHDGLYQGLSTATKDTYDALHMQALPPR	< 40
> 65	CAR construct LTG2099 (hScFv aCD38 CD8 TM 4-1BB CD3 zeta) (other, Chimeric antigen receptor on transduced human primary T cells) QVTLKESGPVLVKPTETLTLTCTFSGFSLSTSGVGVAWIRQPPGKDLEWLALIYWDDDKRYSPSLESRLTITKDTSKNQVALTMSDMDPVDTATYYCARGDYWGRLDYWGQGTLVTVSSGGGGSGGGGSGGGGSDIQLTQSPSSLSASIGDRVTITCQASEDINNYLNWYQQKPGKAPKLLIYDASNLETGVPSRFSGSGSGTDFTFTINSLQPEDIATYYCQQFDNMPLTFGGGTKLEIKAAATTTPAPRPPTPAPTIASQPLSLRPEACRPAAGGAVHTRGLDFACDIYIWAPLAGTCGVLLLSLVITLYCKRGRKKLLYIFKQPFMRPVQTTQEEDGCSCRFPEEEEGGCELRVKFSRSADAPAYQQGQNQLYNELNLGRREEYDVLDKRRGRDPEMGGKPRRKNPQEGLYNELQKDKMAEAYSEIGMKGERRRGKGHDGLYQGLSTATKDTYDALHMQALPPR	< 10
> 45	CAR construct LTG2090 (hScFv aCD38 CD8 TM 4-1BB CD3 zeta) (other, Chimeric antigen receptor on transduced human primary T cells) EVQLVESGGGSVQPGGSLRLSCAASEFTFSSYWMHWVRQAPGKGLEWVAVISYDGAKKYYADSVKGRFTISRDNSKNTLYLQMNSLRAEDTAVYYCARDDGSGGFDYWGQGTLVTVSSGGGGSGGGGSGGGGSDIVMTHTPLSLSVTPGQPASISCKSSQSLLHSDGKTYLYWYLQKPGQPPQLLIYEVSNRFSGVPDRYSGSGSGTDFTLKISRVEAEDVGVYYCMQSIQLPLTFGGGTKLEIKAAATTTPAPRPPTPAPTIASQPLSLRPEACRPAAGGAVHTRGLDFACDIYIWAPLAGTCGVLLLSLVITLYCKRGRKKLLYIFKQPFMRPVQTTQEEDGCSCRFPEEEEGGCELRVKFSRSADAPAYQQGQNQLYNELNLGRREEYDVLDKRRGRDPEMGGKPRRKNPQEGLYNELQKDKMAEAYSEIGMKGERRRGKGHDGLYQGLSTATKDTYDALHMQALPPR	< 70
